Reference: patent US20210046191A1
Where two headings read alike, the source gives them in different places.

Experiments:
[1] = biological target: recombinant human C5a (rhC5a) (human) (UniProt P01031)
[2] = biological target: C5a receptor C5aR (CD88) on human blood neutrophils (human) (UniProt P21730); assay: cell-based or functional assay
[3] = biological target: C5a receptor C5aR (CD88) on human blood neutrophils (human) (UniProt P21730); assay: cell-based or functional assay; remark: listed apart in the source

C5a receptor C5aR (CD88) on human blood neutrophils (human), sequence (P21730 whole entry): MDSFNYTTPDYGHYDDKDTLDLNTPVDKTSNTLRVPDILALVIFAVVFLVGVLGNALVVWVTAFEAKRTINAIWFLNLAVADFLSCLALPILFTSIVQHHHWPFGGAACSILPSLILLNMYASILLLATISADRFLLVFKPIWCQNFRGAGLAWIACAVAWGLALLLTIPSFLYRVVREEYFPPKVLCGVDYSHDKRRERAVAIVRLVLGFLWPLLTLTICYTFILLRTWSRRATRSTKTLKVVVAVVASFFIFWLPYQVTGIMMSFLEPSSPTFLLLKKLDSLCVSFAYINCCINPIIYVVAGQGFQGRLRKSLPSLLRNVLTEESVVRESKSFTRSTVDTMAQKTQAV
recombinant human C5a (rhC5a) (human), sequence (P01031 678-751 limits assumed): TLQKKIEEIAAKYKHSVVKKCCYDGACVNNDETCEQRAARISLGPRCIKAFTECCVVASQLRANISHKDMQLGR

Substance irrelevant human IgG4 antibody has a blocking activity (%) of rhC5a-induced CD11b upregulation on neutrophils, human whole blood, flow cytometry; bar 'IgG4 control : rhC5a = 1:1' against rhC5a (16.7 nM) alone [1] of 7%.
With anti-C5aR (CD88) antibody Clone 7H110 the Blocking activity (%) on CD11b upregulation; Pat. 088 | Clone 7H110 (50 nM) [2] was 75.7%, the Blocking activity (%) on CD11b upregulation; Pat. 092 | Clone 7H110 (50 nM) [2] was 78.7% and the Blocking activity (%) on CD11b upregulation; huPP | rhC5a | Clone 7H110 (50 nM) [2] was 70.7%. The CD11b (mean MFI) on neutrophils; Pat. 088 | Clone 7H110 (50 nM) [2] was 3560 MFI, the CD11b (mean MFI) on neutrophils; Pat. 092 | Clone 7H110 (50 nM) [2] was 3390 MFI and the CD11b (mean MFI) on neutrophils; huPP | rhC5a | Clone 7H110 (50 nM) [2] was 3380 MFI.
In the case of PMX-53 (peptide), the Blocking activity (%) on CD11b upregulation; Pat. 088 | PMX 53 (50 nM) [2] is reported as 55.5%, the Blocking activity (%) on CD11b upregulation; Pat. 092 | PMX 53 (50 nM) [2] is reported as 56.7% and the Blocking activity (%) on CD11b upregulation; huPP | rhC5a | PMX 53 (50 nM) [2] is reported as 50.3%. For the same substance, the CD11b (mean MFI) on neutrophils; Pat. 088 | PMX 53 (50 nM) [2] was 4730 MFI, the CD11b (mean MFI) on neutrophils; Pat. 092 | PMX 53 (50 nM) [2] was 4660 MFI and the CD11b (mean MFI) on neutrophils; huPP | rhC5a | PMX 53 (50 nM) [2] was 4240 MFI. For the same substance, the Blocking activity (%) on CD11b upregulation; Pat. 088 | PMX 53 (20 µM) [3] was 104%, the Blocking activity (%) on CD11b upregulation; Pat. 092 | PMX 53 (20 µM) [3] was 109% and the Blocking activity (%) on CD11b upregulation; huPP | rhC5a | PMX 53 (20 µM) [3] was 108%. It also gave a CD11b (mean MFI) on neutrophils; Pat. 088 | PMX 53 (20 µM) [3] of 2030 MFI, a CD11b (mean MFI) on neutrophils; Pat. 092 | PMX 53 (20 µM) [3] of 1910 MFI and a CD11b (mean MFI) on neutrophils; huPP | rhC5a | PMX 53 (20 µM) [3] of 1850 MFI.
“recombinant human C5a (rhC5a) (from UniProt P01031 678-751) (ligand)” was tested, and the CD11b (mean MFI) on neutrophils; huPP | rhC5a (20 nM) [2] was 6330 MFI and the CD11b (mean MFI) on neutrophils; huPP | rhC5a (20 nM) [3] was 8330 MFI.
anti-C5aR (CD88) antibody Clone S5/1 was tested, and the Blocking activity (%) on CD11b upregulation; Pat. 088 | Clone S5/1 (50 nM) [2] was 72.7%, the Blocking activity (%) on CD11b upregulation; Pat. 092 | Clone S5/1 (50 nM) [2] was 75.9% and the Blocking activity (%) on CD11b upregulation; huPP | rhC5a | Clone S5/1 (50 nM) [2] was 73%. It also gave a CD11b (mean MFI) on neutrophils; Pat. 088 | Clone S5/1 (50 nM) [2] of 3740 MFI, a CD11b (mean MFI) on neutrophils; Pat. 092 | Clone S5/1 (50 nM) [2] of 3560 MFI and a CD11b (mean MFI) on neutrophils; huPP | rhC5a | Clone S5/1 (50 nM) [2] of 3290 MFI.
